Experimental findings from patent publication US20250121082A1 (SHANDONG BOAN BIOTECHNOLOGY, published 2025) are described below.

Assay [1] deals with T1, Human CD228 protein (human, UniProt P08582 20-708, limits assumed).
T1 construct: Recombinant protein made in CHO cells, purified over a Ni column; The printed entry begins with the leader (MRGPSG...) and ends with ten His; also called hCD228; CD228-His protein
T1 sequence: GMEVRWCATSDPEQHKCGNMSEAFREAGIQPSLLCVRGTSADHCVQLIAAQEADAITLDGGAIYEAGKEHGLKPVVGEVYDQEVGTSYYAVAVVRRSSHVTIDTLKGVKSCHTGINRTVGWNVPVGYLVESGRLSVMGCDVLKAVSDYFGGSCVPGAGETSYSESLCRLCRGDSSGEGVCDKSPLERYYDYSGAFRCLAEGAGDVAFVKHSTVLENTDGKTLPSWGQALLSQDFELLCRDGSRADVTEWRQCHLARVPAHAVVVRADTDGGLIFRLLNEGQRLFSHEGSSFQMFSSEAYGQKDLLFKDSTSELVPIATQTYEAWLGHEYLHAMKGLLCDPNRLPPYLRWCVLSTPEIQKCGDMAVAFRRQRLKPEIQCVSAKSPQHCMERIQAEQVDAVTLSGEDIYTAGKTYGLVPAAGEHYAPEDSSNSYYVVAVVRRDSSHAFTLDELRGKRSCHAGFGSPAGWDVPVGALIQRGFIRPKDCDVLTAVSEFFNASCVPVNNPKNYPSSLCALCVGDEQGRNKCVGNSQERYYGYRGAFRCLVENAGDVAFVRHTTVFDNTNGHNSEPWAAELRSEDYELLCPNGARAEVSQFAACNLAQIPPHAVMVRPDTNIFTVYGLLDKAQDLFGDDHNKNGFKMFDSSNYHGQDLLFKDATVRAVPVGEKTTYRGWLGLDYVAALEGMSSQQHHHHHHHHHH
In words: Octet competition on His-chip CD228; competitor: hl49. The protocol: (§1) CD228 proteins were immobilized on His chips at 10 μg/mL with a threshold of 0.5 nm. The first CD228 antibody (30 μg/mL) was immobilized, and the competitive binding of the second CD228 antibody (30 μg/mL) was analyzed. The Octet 8K system was used to analyze the response of antibody 2 and to determine whether antibody 1 and antibody 2 were in competition.

In assay [2] the target is T1, Human CD228 protein. Put plainly: Octet competition on His-chip CD228; competitor: CA13. How it is done: as §1
(§2) The final competition analysis was conducted using the following calculation method: 1—response value/blank value.

Assay [3] concerns the target T1, Human CD228 protein. Put plainly: Octet competition on His-chip CD228; competitor: CA67. How it is done:
as §1, §2

For assay [4], the target named is T1, Human CD228 protein. Put plainly: Octet competition on His-chip CD228; competitor: hl49. How it is done: as §1, §2
The source holds these as a separate data set.

Assay [5] concerns the target T1, Human CD228 protein. Put plainly: Octet competition on His-chip CD228; competitor: BA352. The protocol: as §1
The target of assay [6] is T1, Human CD228 protein. Put plainly: Octet competition on His-chip CD228; competitor: CA149. The protocol: as §1
Assay [7] has as its target T1, Human CD228 protein. Put plainly: Octet competition on His-chip CD228; competitor: CA518. How it is done: as §1
For assay [8], the target named is T1, Human CD228 protein. Put plainly: Octet competition on His-chip CD228; competitor: CA149. How it is done:
as §1, §2
The source holds these as a separate data set.

Assay [9] deals with T1, Human CD228 protein. Put plainly: Octet competition on His-chip CD228; competitor: CA185. How it is done: as §1, §2
Assay [10] deals with T1, Human CD228 protein. Put plainly: Octet competition on His-chip CD228; competitor: CA518. The protocol: as §1, §2
The source holds these as a separate data set.

The next assay has as its target T2, Mouse CD228 protein (mouse, UniProt Q9R0R1 20-708, limits assumed).
T2 construct: Recombinant His-tagged protein from CHO cells
T2 chain: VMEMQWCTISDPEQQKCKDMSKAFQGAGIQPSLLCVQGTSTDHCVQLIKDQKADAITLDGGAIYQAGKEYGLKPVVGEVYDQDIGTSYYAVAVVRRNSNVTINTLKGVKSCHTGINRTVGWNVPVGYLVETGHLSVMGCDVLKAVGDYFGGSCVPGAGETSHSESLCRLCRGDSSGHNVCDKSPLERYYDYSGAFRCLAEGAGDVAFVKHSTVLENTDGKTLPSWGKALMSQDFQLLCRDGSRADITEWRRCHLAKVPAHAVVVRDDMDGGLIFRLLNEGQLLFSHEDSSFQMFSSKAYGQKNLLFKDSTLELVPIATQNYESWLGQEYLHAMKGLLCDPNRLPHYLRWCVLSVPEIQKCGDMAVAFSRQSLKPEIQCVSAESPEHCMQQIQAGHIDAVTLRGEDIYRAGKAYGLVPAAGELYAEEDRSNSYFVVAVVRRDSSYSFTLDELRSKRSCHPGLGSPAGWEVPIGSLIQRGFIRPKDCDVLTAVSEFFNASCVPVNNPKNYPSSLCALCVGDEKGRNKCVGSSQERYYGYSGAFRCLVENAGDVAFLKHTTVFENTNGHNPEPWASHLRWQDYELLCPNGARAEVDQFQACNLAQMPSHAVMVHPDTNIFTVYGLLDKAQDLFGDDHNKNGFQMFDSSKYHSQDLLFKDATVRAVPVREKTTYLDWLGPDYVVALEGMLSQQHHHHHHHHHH
In words: SPR, BIAcore 8K; antibody on ProA chip, CD228 protein as analyte. How it is done: The binding kinetics of the antibodies to the CD228 proteins was measured using the BIAcore 8K system based on surface plasmon resonance (SRP). CD228 antibodies were immobilized on ProA chips at a concentration of 2 μg/mL, and the binding activity of the CD228 antibodies to human, monkey, and mouse CD228 proteins was analyzed. Human, monkey and mouse CD228 proteins were serially 2-fold diluted from 50 nM to 5 concentrations with an HBS-EP+ buffer. The binding kinetics of the CD228 proteins were analyzed by Biacore, and the affinity activity KD values were calculated by fitting.

Assay [11] deals with T1, Human CD228 protein. In words: Octet, CD228 on His chip; PBST buffer in place of the first antibody. How it is done:
as §1

B1: CA149 (antibody, human IgG1, kappa, V domains shown)
VH: EVQLVESGGGVVQPGRSLRLSCAASGFTFSSYAMHWVRQAPGKGLEWVAVISFDGSNKYYTDSVKGRFTISRDNSKNTLYLQMNSLRAEDTAVYYCAREVPYYYGSGPFDYWGQGTLVTVSS
VL: EIVLTQSPATLSVSPGERATLSCRASQSVSSNLAWYQQKPGQAPRHLIDGASSRASGIPDRFSGSGSGTDFTLTISRLEPEDFAVYYCQQYGSSPPFTFGPGTKVDIKR
notes: Intact IgG1; also called CA149 antibody
In the case of B1, the Octet response value with Human CD228 protein [1] is 0.348; in the assay with Human CD228 protein [5], 0.442; with Human CD228 protein [6] it was 0.0039; with Human CD228 protein [7], 0.0079. The “competition (1-response value/blank value)” value stood at 97% in the assay with Human CD228 protein [2]; 98% with Human CD228 protein [3]; 0% with Human CD228 protein [4]; 99% with Human CD228 protein [8]; 98% in the assay with Human CD228 protein [9]; 98% with Human CD228 protein [10]. Further, the binding result with Mouse CD228 protein was “no binding”. Further, the “Octet response value (blank value, PBST buffer)” value with Human CD228 protein [11] stood at 0.409.

B2: CA185 (antibody, human IgG1, kappa, V domains shown)
VH: EVQLVESGGGVVQPGRSLRLSCAASGFTFSSYAMHWVRQAPGKGLEWVAVISYDGSNKYYADSVKGRFTISRDNSKNTLYLQMNSLRAEDTAVYYCAREVPYYYGSGPFDYWGQGTLVTVSS
VL: EIVLTQSPGTLSLSPGERATLSCRASQSVSSSSLAWYQQKPGQAPRHLIDGASSRASGIPDRFSGSGSGTDFTLTISRLEPEDFAVYYCQQYGSSYTFGQGTKVDIKR
notes: Intact IgG1
As to B2, the Octet response value in the assay with Human CD228 protein [1] turned out to be 0.356; with Human CD228 protein [5], 0.459; with Human CD228 protein [6] it was 0.0089; in the assay with Human CD228 protein [7], 0.0029. For the same molecule, the “competition (1-response value/blank value)” value with Human CD228 protein [2] was 99%; with Human CD228 protein [3] it was 99%; with Human CD228 protein [4], -3%; with Human CD228 protein [8], 98%; with Human CD228 protein [9], 99%; with Human CD228 protein [10] it was 99%. For the same molecule, in the assay with Mouse CD228 protein, the binding result is given as “no binding”. For the same molecule, in the assay with Human CD228 protein [11], the “Octet response value (blank value, PBST buffer)” value is 0.411.

B3: BA352 (antibody, human IgG1, kappa, V domains shown)
VH: EVQLVESGGGVVQPGRSLRLSCAASGFTFSSYAMHWVRQAPGKGLEWVAVISYDGSNKYYADSVKGRFTISRDNSKNTLYLQMNSLRAEDTAVYYCARGPYLAAAGTALTFDIWGQGTMVTVSS
VL: DIQMTQSPSAMSASVGDRVTITCRASQGINNYLAWFQQKPGKVPKRLIYAASSLQSGVPSRFSGSGSGTEFTLTISSLQPEDFATYYCLQHNSYPFTFGPGTKVDIKR
notes: Intact IgG1
B3: the Octet response value was 0.0006 with Human CD228 protein [1], 0.0217 with Human CD228 protein [5], 0.416 with Human CD228 protein [6] and 0.458 with Human CD228 protein [7]. The “competition (1-response value/blank value)” value with Human CD228 protein [2] is -8%; with Human CD228 protein [3], -4%; in the assay with Human CD228 protein [4] it was 100%; with Human CD228 protein [8] it was -2%; with Human CD228 protein [9], -3%; in the assay with Human CD228 protein [10], -4%. Moreover, the binding result in the assay with Mouse CD228 protein is recorded as “no binding”. Besides, the “Octet response value (blank value, PBST buffer)” value with Human CD228 protein [11] was 0.393.
